This data set has as its target T1, RpoN (sigma-54) (Vibrio parahaemolyticus RIMD2210633) (UniProt Q87LE2).
T1 sequence: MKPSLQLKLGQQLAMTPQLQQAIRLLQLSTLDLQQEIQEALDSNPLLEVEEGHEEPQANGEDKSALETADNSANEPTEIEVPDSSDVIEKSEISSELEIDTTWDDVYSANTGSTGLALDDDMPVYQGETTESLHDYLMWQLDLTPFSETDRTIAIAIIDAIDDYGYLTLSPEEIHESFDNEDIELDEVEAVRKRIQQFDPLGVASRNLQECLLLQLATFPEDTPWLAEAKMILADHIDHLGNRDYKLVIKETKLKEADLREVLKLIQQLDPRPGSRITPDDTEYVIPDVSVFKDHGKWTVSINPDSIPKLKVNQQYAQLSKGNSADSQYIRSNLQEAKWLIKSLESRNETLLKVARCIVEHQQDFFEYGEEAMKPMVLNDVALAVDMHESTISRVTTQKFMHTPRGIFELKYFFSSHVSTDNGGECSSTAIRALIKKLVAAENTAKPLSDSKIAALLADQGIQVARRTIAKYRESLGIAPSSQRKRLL
In words: EMSA. As to conditions: EMSA: 20 µl with 10 ng FAM probe, 4 µl EMSA buffer (10 mM NaCl, 0.1 mM DTT, 0.1 mM EDTA, 10 mM Tris pH 7.4), 1 µl poly-dIdC, 25 °C 0.5 h, 6% native PAGE. On the technique in general: A gel shift assay detects complexes by their altered migration in electrophoresis.
For the sequence “GTGCCTTGTCAAAAGATATAGCCATGTTTGCCTCTACAATTAAGAACTGACCGTTATTAATAACTAAAAAACCGGAAACGCTAAAACACCTATCAGCTATTGACGTTTTAGATTGCAATAAGCAAGCCAAAGTAACTGGAATGTCGTATCACTTCGCTTACTTGAATAAAGATACACCCTGCAGAGGGAGCAGGGCAAAGTCCGACAACAGATTAGCGAGGGGAAACTCGAAATCTCATCTCATATAGACAAAATCGTCGACCTGCAGGCA (double strand) [ΔflgB promoter (RpoN site deleted)]”, the binding entry was “no binding”.

“TGCCTGCAGGTCGACGATATCTTAATTCGCACCACTTTAGTGCAGACGTAGATCATTTTGGTGCAATCATTTGCACCAAACTAGCATCTAAAAACACAATTCATTGAAATTAATGGAATATTTTTTTTGGCACGGTTTTGGCTTTAGTAAACACAGCATCGATTAATGAAAAGTCAAAAAGATTAATCAATGCCGGGTTCATGAATATTTCATAAGTCGAGCTTTTACCGCTTATTAACACTGGAGGTTATCCAAG (double strand) [VP0121 promoter]”: the binding entry was “binds”.

Take “TGCCTGCAGGTCGACGATCCTTGTTTTATCCCATGGTCAGCGGGCGCGAAGGCGGCACCGGACTTGGGTTGTCCATCTCACAAAATTTGATCGACCAGCACAACGGAAAAATCGACGTTGAAAGCTGGCCTGGCCACACCACTTTTACAATTTATTTGCCGATTTGACCTCACGAATGGATTTCGTTGAGCGCCAATTTACGGTTTTTGCTGCAAGGATTAGTAC (double strand) [VP0118 promoter]”: the binding entry is recorded as “no binding”.

“TGCCTGCAGGTCGACGATCGCCGGAACATCGTCATTAATCGTACAAAAAGCAAAATTAAGAAAAATATAAAACAATCAATGGATTGTGCTGTTATTTAGCTTTGAGTCATTATTTTGGCGTTGATTTTGGTACATAGATTGCTTAAGTCGACTAATTATCAACTATACCTAAACTTTTAGGCGAAAGTGGTCGCGTATAAACATTAGACATACGTATTAAAGTGCGTATTCGCGTGACGCTTCAATTCGATTGAGATACCTCGCAGT (double strand) [flhA promoter]”: the binding result is recorded as “no binding”.

As for “TGCCTGCAGGTCGACGATCTGCAAGTGAAGCAGAAAATCGAAAGTATGTGACCTTTTGGGGTTGCCGCGTACGCGAATCATTGAGGCTTGCCATCGTGCAAGCCTTTATTTTACCTGAATTTACTACTCTAAATCCCACTTGGCACATCTTTTGCTTTTACTTGTCTAGGTGATCGGTATTTACCGATCTTATTTCGTTTTTGGGGGCAGGTATGGCGTCAGATCTTCTG (double strand) [flgK promoter]”, the binding entry is reported as “no binding”.

As for “TGCCTGCAGGTCGACGATCTTGGCTTGATAACATCATGACATTCATCTGATGCTTAGCCTGAAAACACCTCAGTTCAGGCTAAGCATGCTTTGATCTCTGGTTTGCCGCTGTTGCCGCCACATGGATCAAAATCTTGCCTCCCTTTGCAGTTTTTTTTCATTGAATATCCTTCTTGATTGCCTTTAATCTCATTCAAGTTTTTGATAAATAAGTTTATTTTTATTTTGGCATAACTATTGCTTTTACTCCGGAAGTACAGAGACTTTTTTGGAGTAA (double strand) [flgF promoter]”, the binding result was “no binding”.

For the sequence “TGCCTGCAGGTCGACGATGAGCTGCTGATATGCTGGGTATGCGCCGTACAACGTTGGTTGAGAAAATGCGCAAGTATAATTTGCAGCGTTAGATCGAGCTTCAGTTCAATCACAAAAGTTATCTTTTCTGACATTAAAATCAGACATTTCTCGGTGTCAACTTATTGTCGATAACATAACGTCATGATAAATATAAAAATAGCTTGGTACGCTAATTGCTTACCAAGCTATTTTACTTTTTAGTGGCGATATTTCGACAGGCAGTGA (double strand) [flaL promoter]”, the binding entry is listed as “no binding”.

As to “TGCCTGCAGGTCGACGATGATATTTTATTGGCATGACATTTGCTATTTGTTGCTCAATACTAATCTGGTTGAAGTTAGCACGGACGCACTGCGTAGTATTCATCGCCTATAGATGGCGGAATAAGAATGCTCATTGATAAGTTAATCAGCAGAATCTCCGGCGCTAACTACACTAAGAGATGGAAAAGACTATCCATGTTCATAAATGGAATTGAGC (double strand) [VP1510 promoter]”, the binding result is listed as “no binding”.

As for “TGCCTGCAGGTCGACGATGTCCTGTCGAAAGAATTCCTAATAACAGTATCCACTTTGAGGAAATTAGAGTTTTCCCCCTAATTTTTTTGCTTTCCGTAAACCGGAAGTTTGGTTTCCACTCTTGTTTGTAAGTCATTGATAAATATAAATAAAATTTATGGCACGTATCTTGTTTGTATCTTGGCGTATTCGAGCCGACTGTAAGGAAAGATGCATGGCGATCACATTTGAAAATGCTTTAGGTGTACATCCAG (double strand) [flgB2 promoter]”, the binding entry is “binds”.

In the case of “TGCCTGCAGGTCGACGATGTGGAATGTAATGGCCGACGCAAAGAAATGGCAGAGAAGTTGGGCATAAGCCCGCGTACTCTGCGCTACAAACTTGCCAAAATGCGTGACGCGGGTATAGATATTCCGAGTTAGGTTTCACACGCGTAGCCATAAGACAAAAGTGTGAGTAAACTATACAGCTGGCGTCTTATGGCACATAAATTGCTGTGTCAATAATTAGTTTAAATAGATAGTCAAACTTTTGGCTCAGAGGTGATA (double strand) [fliE promoter]”, the binding entry is “binds”.

On to “TGCCTGCAGGTCGACGATGTGGAATGTAATGGCCGACGCAAAGAAATGGCAGAGAAGTTGGGCATAAGCCCGCGTACTCTGCGCTACAAACTTGCCAAAATGCGTGACGCGGGTATAGATATTCCGAGTTAGGTTTCACACGCGTAGCCATAAGACAAAAGTGTGAGTAAACTATACAGCTGGCGTCTTGTCAATAATTAGTTTAAATAGATAGTCAAACTTTTGGCTCAGAGGTGATA (double strand) [ΔfliE promoter (RpoN site deleted)]”, for which the binding entry is recorded as “no binding”.

Take “TGCCTGCAGGTCGACGATTCTCTTTGCCTTAATCTTATGCCGATCAAAGCACATCGGAAACTAACGCTAAAACGGTAGCAAACCCCAACTTAGTGGAATGCAAGTCACTAAAAATCATCAATTTTGATCTTTTTTAGAAAATTTTTAATTTTCAAATTAATCATTAGTGGCAAGCGACCGCCTCTAGTTAGTGACTAGGGAATATCCCAAGGCCTGAAAGAAATAGTGATAAACTAAGGAGACTAAG (double strand) [lafA promoter]”: the binding result is on record as “binds”.

“TGCCTGCAGGTCGACGATTCTGTAAATAATAATTGAGAGTTGCTTCATAATAACTATTATTAGTTATAAATATCGCTTAATTTAAATCTAATTTAAAGATATAAAGGAGCGTATTTAAAATGAAGTTTTTGATACATCAATCATTAATTATCATTATTCAGATAATTTAATTAATACGAAATATGTCAATTAATAATGCTCTAGGAGATTAGC (double strand) [hcp2 promoter]”: the binding entry is on record as “binds”.

For the sequence “TGCCTGCAGGTCGACGATTTAATCAACACGTCACATTCCTAAAATGAATTAAATATTTTCAGCTTTTTAGTCGCCTTGTCTTATAGGGAAACACTAGATGTTTTCGAGAGGAAGGCGGAACACATAAGGTGGAAAATACACTTCCTCTCAAATTTAAATAGTATCGCAAGTCAATGTTTTAAAAGAATATTCAAGTTAGGCACGTATCTTGCGATAAGACATACTTTCAAGGCATAGAGTTACGCCAATTACCAATGAGAGAGGGAGTAAGCTC (double strand) [lafB promoter]”, the binding entry is reported as “no binding”.

On to “TGCCTGCAGGTCGACGATTTTTGGACTCAACGTAACATTTTTCAATTTTGCCTCTCGTCACATCGCGTGAGTATCGAGTACAAAAATAAAATTTAATGTTCACCACATCCTTGTCGCCTATTGGATTTAGAACATGATGATGAGGACCACAGC (double strand) [flgM promoter]”, for which the binding result was “no binding”.

“TTTTGGACCATCCGTCAGTAAATCAAACCCTTCTGGATGTATCAACTGCAGCGGTAACACTTGCGCCAATTGCGCCAATTTTTGCCCAGATTGACCGCCTATTTTAACCTCTGTCGAGCCATCGCGCTGCTTATTAATGCCGATAGGTAGCTCAAATTGATCCGAGTTCAAAAAACGACCATGAACAAACAGTTCATCACACTCATTTTGAATCACACGACCAGTGAGAGAGCTTTTGAATGAGCGACCATGCCCGAGTAAATAAATCGCTTCTAGGACAATCGTCGACCTGCAGGCA (double strand) [gyrB promoter]”: the binding entry is “no binding”.

For the origin of these results see paper PMC9817140.
